Source: publication doi:10.1101/2022.07.09.499445 (bioRxiv, 2022)

Legend:
[1] = target: ICab A4, displayed on the yeast cell surface (camel); assay: flow cytometry on cells
[2] = target: ICab B7, displayed on the yeast cell surface (camel); assay: flow cytometry on cells
five unique clones = assay: flow cytometry on cells
[3] = target: QacA WT (tagged with GFP) (Staphylococcus aureus, UniProt P0A0J9); assay: immunostaining of cells or tissue

Binder | Kd [1] | Kd [2] | population shift (five unique clones) | binding result [3]
QacA_(D411N)GFP (natural protein) MISFFTKTTDMMTSKKRWTALVVLAVSLFVVTMDMTILIMALPELVRELEPSGTQQLWIVDIYSLVLAGFIIPLSAFADKWGRKKALLTGFALFGLVSLAIFFAESAEFVIAIRFLLGIAGALIMPTTLSMIRVIFENPKERATALAVWSIASSIGAVFGPIIGGALLEQFSWHSAFLINVPFAIIAVVAGLFLLPESKLSKEKSHSWDIPSTILSIAGMIGLVWSIKEFSKEGLADIIPWVVIVLAITMIVIFVKRNLSSSDPMLDVRLFKKRSFSAGTIAAFMTMFAMASVLLLASQWLQVVEELSPFKAGLYLLPMAIGDMVFAPIAPGLAARFGPKIVLPSGIGIAAIGMFIMYFFGHPLSYSTMALALILVGAGMASLAVASALIMLETPTSKAGNAAAVEESMYNLGNVFGVAVLGSLSSMLYRVFLDISSFSSKGIVGDLAHVAEESVVGAVEVAKATGIKQLANEAVTSFNDAFVATALVGGIIMIIISIVVYLLIPKSLDITKQK | 65 nM | 100 nM | 65 to 97% | 
ICab B7, purified (VHH) VHH: QVQLQESGGGSVQAGGSLRLSCAASGYTNSRKCMGWFRQIPGKEREGVAAIYGFGRGLILYADSVKGRFTISQDNAKNTVYLQMNSLKPEDTAMYYCAADSPGSCLSRSGYNYWGQGTQVTVSS |  |  |  | binds
ICab A4, purified (VHH) VHH: QVQLQESGGGSVQTGGSLRLSCAASGYRYSDNCVGWFRQAPGREREAVATYNSGSSTWYADSVKGRFTISQDSAKSTVYLQMNNLKPEDTAMYYCAGRNRLGSYCYMTGDFAYWGQGTQVTVSS |  |  |  | binds
